Data taken from patent US20110065176A1.

Target: KDR(ECD1-3)-Fc (human) (UniProt P35968)
Experiment: BIAcore; KDR(ECD1-3)-Fc immobilized on CM5 chip, IgG in flow

Sequence of KDR(ECD1-3)-Fc (human) (P35968 other isoform, or with tags, fused parts or gaps limits assumed, form in doubt): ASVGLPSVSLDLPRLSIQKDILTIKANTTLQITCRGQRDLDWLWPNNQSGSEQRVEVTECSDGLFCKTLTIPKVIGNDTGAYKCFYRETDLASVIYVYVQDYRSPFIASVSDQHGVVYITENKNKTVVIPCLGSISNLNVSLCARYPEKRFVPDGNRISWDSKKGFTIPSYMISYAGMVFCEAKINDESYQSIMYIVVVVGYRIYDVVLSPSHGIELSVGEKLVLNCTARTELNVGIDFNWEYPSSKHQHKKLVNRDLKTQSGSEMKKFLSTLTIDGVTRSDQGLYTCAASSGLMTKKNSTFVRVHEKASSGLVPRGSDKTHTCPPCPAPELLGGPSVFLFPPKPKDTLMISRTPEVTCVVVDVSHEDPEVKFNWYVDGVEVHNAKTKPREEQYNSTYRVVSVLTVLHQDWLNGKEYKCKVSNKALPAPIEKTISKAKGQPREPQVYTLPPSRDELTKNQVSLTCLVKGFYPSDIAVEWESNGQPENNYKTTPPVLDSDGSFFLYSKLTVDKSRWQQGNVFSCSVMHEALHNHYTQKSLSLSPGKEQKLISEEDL

Substance: IMC-1121 IgG (reconstructed) (antibody)
- Kd: 385 pM
- koff: 8.75e-05 s⁻¹
- kon: 227000 M⁻¹ s⁻¹
